Source: publication PMC5057104, “The unravelling of the complex pattern of tyrosinase inhibition” (Scientific Reports, 2016)

How the values were obtained:
[1] = substrate: N[C@@H](Cc1ccc(O)c(O)c1)C(=O)O; assay: Kinetic analysis of tyrosinase (Lineweaver-Burk plots); type: biochemical, Bacillus megaterium; conditions: other: compound as TyrBm natural substrate; pH 7.4; 40.0 °C
Description: (§1) Tyrosinase inhibitory activity was determined spectrophotometrically in 96-well plates with a final volume of 200 μl. First, 50 mM PBS buffer pH 7.4 and 0.01 mM CuSO4 were mixed with 6 μg ml^−1 of purified enzyme. Then, the mixture was incubated at 40 °C for 2 minutes. Finally, various concentrations of inhibitor were mixed with 1.2 mM L-tyrosine or 2 mM L-dopa and were added to the pre-incubated mixture. […] The reaction mixture was then monitored for L-dopachrome formation (ε = 3600M^−1 cm^−1) by measuring the absorbance at 475 nm. Specific activity was calculated as the ratio of the conversion rate and the total protein content as determined by the Bradford analysis method (Bio-Rad, Israel). All measurements were performed in seven replicates.
(§2) The inhibition kinetics module of Sigma Plot 13.0 software was used (Systat Software, Inc., Richmond, CA, USA). All measurements were performed in 5-replicates.

[2] = substrate: N[C@@H](Cc1ccc(O)cc1)C(=O)O; assay: as above; type: biochemical, Bacillus megaterium; conditions: other: compound as TyrBm natural substrate; pH 7.4; 40.0 °C
Description: as §1, §2

B1: TyrBm (tyrosinase from Bacillus megaterium) (Priestia megaterium) (protein)
chain: MSNKYRVRKNVLHLTDTEKRDFVRTVLILKEKGIYDRYIAWHGAAGKFHTPPGSDRNAAHMSSAFLPWHREYLLRFERDLQSINPEVTLPYWEWETDAQMQDPSQSQIWSADFMGGNGNPIKDFIVDTGPFAAGRWTTIDEQGNPSGGLKRNFGATKEAPTLPTRDDVLNALKITQYDTPPWDMTSQNSFRNQLEGFINGPQLHNRVHRWVGGQMGVVPTAPNDPVFFLHHANVDRIWAVWQIIHRNQNYQPMKNGPFGQNFRDPMYPWNTTPEDVMNHRKLGYVYDIELRKSKRSS
notes: made in house; host or cells: Escherichia coli BL21
- Km [1]: 0.24 ± 0.02 mM
- Vmax [1]: 30.3 µmol/min/mg
- kcat [1]: 17.8 s⁻¹
- kcat/Km [1]: 74200 M⁻¹ s⁻¹
- Km [2]: 0.082 ± 0.006 mM
- Vmax [2]: 3.62 µmol/min/mg
- kcat [2]: 2.1 s⁻¹
- kcat/Km [2]: 25600 M⁻¹ s⁻¹
